Biological target: T1, integrin α11 (ITGA11) (human, UniProt Q9UKX5 23-1188)
T1 sequence (looked up): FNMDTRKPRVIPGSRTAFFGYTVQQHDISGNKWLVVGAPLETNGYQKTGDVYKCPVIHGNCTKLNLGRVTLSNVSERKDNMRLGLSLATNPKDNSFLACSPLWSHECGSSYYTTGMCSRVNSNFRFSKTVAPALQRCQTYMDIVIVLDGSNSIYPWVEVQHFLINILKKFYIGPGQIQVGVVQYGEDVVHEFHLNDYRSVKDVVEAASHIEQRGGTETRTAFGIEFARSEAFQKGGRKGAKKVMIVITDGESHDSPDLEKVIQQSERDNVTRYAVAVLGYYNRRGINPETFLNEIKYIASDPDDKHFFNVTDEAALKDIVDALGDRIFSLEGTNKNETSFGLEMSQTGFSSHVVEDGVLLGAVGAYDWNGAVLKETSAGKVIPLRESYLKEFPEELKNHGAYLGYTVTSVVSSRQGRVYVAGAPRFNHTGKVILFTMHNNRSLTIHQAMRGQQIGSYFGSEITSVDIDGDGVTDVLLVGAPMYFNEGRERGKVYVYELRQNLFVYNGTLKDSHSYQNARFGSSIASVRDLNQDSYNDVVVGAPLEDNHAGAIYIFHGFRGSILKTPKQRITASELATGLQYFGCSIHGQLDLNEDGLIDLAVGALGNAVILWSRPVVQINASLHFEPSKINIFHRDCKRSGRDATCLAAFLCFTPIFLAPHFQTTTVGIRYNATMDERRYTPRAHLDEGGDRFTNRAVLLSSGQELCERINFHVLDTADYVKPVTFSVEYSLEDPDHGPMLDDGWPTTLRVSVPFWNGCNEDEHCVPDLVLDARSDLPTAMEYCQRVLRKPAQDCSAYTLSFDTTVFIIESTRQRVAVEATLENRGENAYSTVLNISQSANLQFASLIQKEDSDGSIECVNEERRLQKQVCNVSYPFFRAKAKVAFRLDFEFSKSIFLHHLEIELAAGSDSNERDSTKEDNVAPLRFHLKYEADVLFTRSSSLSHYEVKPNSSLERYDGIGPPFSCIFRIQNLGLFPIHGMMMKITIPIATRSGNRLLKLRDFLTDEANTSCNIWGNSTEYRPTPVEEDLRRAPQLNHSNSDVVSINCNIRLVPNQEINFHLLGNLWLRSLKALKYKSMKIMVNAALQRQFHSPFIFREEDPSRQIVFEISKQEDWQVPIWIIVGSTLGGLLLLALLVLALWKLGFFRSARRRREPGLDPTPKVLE
Assay: cell-based or functional assay

luminescence intensity ratio, ADCC Reporter Bioassay kit, non-senescent IMR-90 cell, relative to the cell without antibody regarded as 1: 1.4 ratio
luminescence intensity ratio, ADCC Reporter Bioassay kit, senescent IMR-90 cell, relative to the cell without antibody regarded as 1: 4.7 ratio
B1: anti-ITGA11 antibody #014 (antibody, mouse IgG2a, kappa, V domains shown)
VH: EVQLVESGGGLVQPGGSLRLSCAASGFNLTSSYIHWVRQAPGKGLEWVASISSHSSYTYYADSVKGRFTISADTSKNTAYLQMNSLRAEDTAVYYCARYWYYSAWALDYWGQGTLVTVSS
VL: DIQMTQSPSSLSASVGDRVTITCRASQSVSSAVAWYQQKPGKAPKLLIYSASSLYSGVPSRFSGSRSGTDFTLTISSLQPEDFATYYCQQSAPYSSLITFGQGTKVEIKR
